How the values were obtained:
Unkempt ZnF1-3 = target: T1, Unkempt ZnF1-3 (mouse, UniProt Q8BL48 31-174); assay: ITC
T1 sequence: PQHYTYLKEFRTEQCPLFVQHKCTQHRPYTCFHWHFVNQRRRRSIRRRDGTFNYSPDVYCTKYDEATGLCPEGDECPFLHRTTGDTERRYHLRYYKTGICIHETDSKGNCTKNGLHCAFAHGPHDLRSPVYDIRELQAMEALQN

Unkempt ZnF4-6 = target: T2, Unkempt ZnF4-6 (mouse, UniProt Q8BL48 204-335); assay: ITC
T2 sequence: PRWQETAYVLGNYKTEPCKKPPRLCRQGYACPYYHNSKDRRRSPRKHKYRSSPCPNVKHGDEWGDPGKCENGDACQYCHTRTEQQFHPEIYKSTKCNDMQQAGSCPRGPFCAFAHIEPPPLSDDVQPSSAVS

Unkempt ZnF1-6 WT = target: T3, Unkempt ZnF1-6 WT (mouse, UniProt Q8BL48 31-335); assay: EMSA
T3 sequence: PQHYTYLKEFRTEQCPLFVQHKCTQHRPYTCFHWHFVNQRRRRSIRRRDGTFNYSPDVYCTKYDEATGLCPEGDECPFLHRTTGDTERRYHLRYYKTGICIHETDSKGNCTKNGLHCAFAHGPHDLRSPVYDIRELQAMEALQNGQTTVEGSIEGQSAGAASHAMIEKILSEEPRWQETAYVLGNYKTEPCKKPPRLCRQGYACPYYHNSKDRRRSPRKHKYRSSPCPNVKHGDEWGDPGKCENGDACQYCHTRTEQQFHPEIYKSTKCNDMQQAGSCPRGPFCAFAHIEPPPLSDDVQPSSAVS

ACUCCCAAUUAUUAAUGA (ssRNA) [HSPA8 URE 18-mer UAG-mutated]
binding result (Unkempt ZnF1-3): binds

ACUUAGAAUUAUUAAUGA (ssRNA) [HSPA8 URE 18-mer WT]
binding result (Unkempt ZnF4-6): binds
binding result (Unkempt ZnF1-6 WT): binds
